Test system: K562 CRISPRi cells
Assay: Constant region variant library pooled growth screen, K562
Type: cell-based, human
Details: sgRNA constant region variants; activity relative to the original, un-modified constant region cr995
Procedure, shortened: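 Pooled library transduced into K562 CRISPRi cells in duplicate, puromycin-selected, grown at >2000× coverage and sampled after 4 to 8 days. Phenotypes per targeting sequence:constant region pair were normalized to the unmodified-scaffold pairing to give relative activity.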

Molecule	Mean relative activity
cr240 (nucleic acid, listed as DNA, chemistry not fully specified) guide: GTTTAAGAGCTAAGCTGGAAACAGCATAGCAAGTTTAAATAAGGCTAGTCCGTTAACAACTTGAAAAAGTGGCACCGAGTCGGTGCT	1.046
cr183 (nucleic acid, listed as DNA, chemistry not fully specified) guide: GTTTAAGAGCTAAGCTGGAAACAGCATAGCAAGTTTAAATAAGGTTAATCCGTTATCAACTTGAGAAAGTGGCACCGAGTCGGTGCT	1.047
cr101 (nucleic acid, listed as DNA, chemistry not fully specified) guide: GTTTAAGAGCTAAGCTGGAAACAGCATAGCAAGTTTAAATAAGGCTAGTCCGTTATCAACTTGAAAAAGTGGCGCCGAGTCGGTGCT	1.048

Same assay, conditions: sgRNA constant region variants; relative to the original, un-modified constant region cr995; CRISPRi

Molecule	Mean relative activity
cr255 (nucleic acid, listed as DNA, chemistry not fully specified) guide: GTTTAAGAGCTAAGCTGGAAACAGCATAGCAAGCTTAAATAAGGCTAGTCCGTTATCAACTTGAAAAAGTGGGACCGAGTCGGTCCT	0.5097
cr190 (nucleic acid, listed as DNA, chemistry not fully specified) guide: GTTTAAGAGCTAAGCTGGAAACAGCATAGCAAGTTTAAATAAGGCTAGTCCGTAATTAACTTGAAAAAGTGGCACCGAGACGGTGCT	0.5036
cr120 (nucleic acid, listed as DNA, chemistry not fully specified) guide: GTTTAAGAGCTAAGCTGGAAACAGCATAGCAAGTTTAAATAAGGCTAGTCCGTTATCAACTTGAGAAAGTGGCACCCAGTGGGTGCT	0.5005
cr620 (nucleic acid, listed as DNA, chemistry not fully specified) guide: GTTTAAGAGCTAAGCTGGAAACAGCATAGCAAGTTTAAATAAGGGTACTCCGTTATCAACTTGAAAAAGTGGAACTGAGTCAGTTCT	0.4842
cr675 (nucleic acid, listed as DNA, chemistry not fully specified) guide: GTTTAAGAGCTAAGCTGGAAACAGCATAGCAAGCTTAAATAAGGCTAGTCCGTTATCACCTTGAAAAAGGGGCACCGAGTCGGTGCT	0.5084
cr493 (nucleic acid, listed as DNA, chemistry not fully specified) guide: GTTTAAGAGCTAAGCTGGAAACAGCATAGCAAGTTTAAATAAGGCTAGCCCGTTACAAACTTGAAAAAGTGGCACCGAGTCGGTGCT	0.4736
cr721 (nucleic acid, listed as DNA, chemistry not fully specified) guide: GTTTAAGAGCTAAGCTGGAAACAGCATAGCAAGTTTAAATAAGGCTAGTCCGCTATTAACTTGAAAAAGTGGCACCGAATCGGTGCT	0.4696
cr765 (nucleic acid, listed as DNA, chemistry not fully specified) guide: GTTTAAGAGCTAAGCTGGAAACAGCATAGCAAGTTTAAATAAGGCTAGTCCGTTATCAACTGGAAACAGTGGCACTCAGTGAGTGCT	0.4931
cr920 (nucleic acid, listed as DNA, chemistry not fully specified) guide: GTTTAAGAGCTAAGCTGGAAACAGCATAGCAAGTTTAAATAAGGCTAGTCCGTTGACTACTTGAAAAAGTGGCACCGAGTCGGTGCT	0.4567
cr163 (nucleic acid, listed as DNA, chemistry not fully specified) guide: GTTTAAGAGCTAAGCTGGAAACAGCATAGCAAGCTTAAATAAGGCTAGTCCGTTATCAACTTGAAAAAGTGGCACCGAGTCGGTGCT	0.4662
cr611 (nucleic acid, listed as DNA, chemistry not fully specified) guide: GTTTAAGAGCTAAGCTGGAAACAGCATAGCAAGTTTAAATAAGGCTAGTCCGTTAGAAACTTGAAAAAGTGGCACCGAATCGGTGCT	0.4954
cr770 (nucleic acid, listed as DNA, chemistry not fully specified) guide: GTTTAAGAGCTAAGCTGGAAACAGCATAGCAAGCTTAAATAAGGCTAGTCCGTTATCAACTTGAAAAAGTGGAACCGAGTCGGTTCT	0.4771
cr369 (nucleic acid, listed as DNA, chemistry not fully specified) guide: GTTTAAGAGCTAAGCTGGAAACAGCATAGCAAGTTTAAATAAGGCTAGTCCGTTATCAAATTGAAAAAGTGGCACCGAGTCGGTGCT	0.4754
cr177 (nucleic acid, listed as DNA, chemistry not fully specified) guide: GTTTAAGAGCTAAGCTGGAAACAGCATAGCAAGTTTAAAGAAGGCTAGTCCGTTATCAACTTGAAAAAGTGGCACCGAGTCGGTGCT	0.4771
cr175 (nucleic acid, listed as DNA, chemistry not fully specified) guide: GTTTAAGAGCTAAGCTGGAAACAGCATAGCAAGTTTAAATAAGGCTAGTCCGTTATCCACTTGAAAAAGTGGCACCGAGTCGGTGCT	0.4914
cr071 (nucleic acid, listed as DNA, chemistry not fully specified) guide: GTTTACGGGCTAAGCTGGAAACAGCATAGCAAGTTTAAATAAGGCTAGTCCGTTATCAACTTGAAAAAGTGGCACCGAGTCGGTGCT	0.475
cr682 (nucleic acid, listed as DNA, chemistry not fully specified) guide: GTTTAAGAGCTAAGCTGGAAACAGCATAGCAAGTTTAAATAAGCGTACTGCGTTATCAACTTGAAAAAGTGGCACCGAGTCGGTGCT	0.4794
cr124 (nucleic acid, listed as DNA, chemistry not fully specified) guide: GTTTAAGAGCTAAGCTGGAAACAGCATAGCATGTTTAAATATGGCTAGTCCGTTATCAACTTGAAAAAGTGGCACCGAGTCGGTGCT	0.4757
cr659 (nucleic acid, listed as DNA, chemistry not fully specified) guide: GTTTAAGAGCTAAGCTGGAAACAGCATAGCAAGTTTACATAAGGCTAGTCCGTTATCAACTTGAAAAAGTGGCACCGAGTCGGTGCT	0.504
cr824 (nucleic acid, listed as DNA, chemistry not fully specified) guide: GTTTAAGAGCTAAGCTGGAAACAGCATAGCAAGTTTAAATAAGGCTAGTCCGTTATCAACTTGACAAAGTGGCACCGAGGCGGTGCT	0.499
cr317 (nucleic acid, listed as DNA, chemistry not fully specified) guide: GTTTAAGAGCTAAGCTGGAAACAGCATAGCAAGTTTAAATATGGCTAGTCCGTTATCAACTTGAAAAAGTGGCACCGAGTCGGTGCT	0.5027
cr530 (nucleic acid, listed as DNA, chemistry not fully specified) guide: GTTTAAGAGCTAAGCTGGAAACAGCATAGCAAGTTTAAATAAGGCTAGCCCGATATCAACTTGAACAAGTGGCACCGAGTCGGTGCT	0.4998
cr904 (nucleic acid, listed as DNA, chemistry not fully specified) guide: GTTTAAGAGCTAAGCTGGAAACAGCATAGCAAGTTTAAATAAGTCTAGTACGTTATCAATTTGAAAAAATGGCAACGAGTCGTTGCT	0.4677
cr399 (nucleic acid, listed as DNA, chemistry not fully specified) guide: GTTTAAGAGCTAAGCTGGAAACAGCATAGCAAGTTTAAATAAGGCTAGTCCGTTATCAACTTGAAAAAGTGGCACCGAGTCCGTGCT	0.4727
cr405 (nucleic acid, listed as DNA, chemistry not fully specified) guide: GTTTAAGAGCTAAGCTGGAAACAGCATAGCAAGTTTAAATAAGGCTAGTCCGTTATCAACTTGAAAAAGTGTCAGCAAGTTGCTGAT	0.4582
cr016 (nucleic acid, listed as DNA, chemistry not fully specified) guide: GTTTATGAGCTAAGCTGGAAACAGCATAGCAAGTTTAAATAAGGCTAGTCCGTTATCAACTTGAAAAAGTGGCACCGAGTCGGTGCT	0.4876
cr758 (nucleic acid, listed as DNA, chemistry not fully specified) guide: GTTTAAGAGCTAAGCTGGAAACAGCATAGCAAGCTTAAATAAGGCTAGTCCGCTATCAACTTGAAAAAGTGGCACCGAGTCGGTGCT	0.4614

Source: patent US20220259593A1, “CONTROL OF MAMMALIAN GENE DOSAGE USING CRISPR” (The Regents of the University of California, priority 2019, published 2022)
